Data on six proteins can be found in article PMC7412794.

“Also recorded” adds a separate entry of the source.

The nature of series [1]: invMM kinetics, 12 g/L Avicel. The following applies: glycan lost; control: untreated TrCel7A CD (no linker, no CBM).
Another series in a line: DSC. To be noted: glycan lost.
The nature of series [2]: pNP-Lac activity after 1 h at Tm−5 °C. To be noted: glycan lost.
Series [3] is described as follows: convMM kinetics, 50 °C, 1 h, reducing ends. To be noted: glycan lost; control: WTAo.
The nature of series [4]: invMM kinetics (enzyme excess), 50 °C, 1 h. To be noted: glycan lost; control: WTAo.

B1: Trichoderma reesei Cel7A (TrCel7A): endoglycosidase H (protein)
parent chain: MYRKLAVISAFLATARAQSACTLQSETHPPLTWQKCSSGGTCTQQTGSVVIDANWRWTHATNSSTNCYDGNTWSSTLCPDNETCAKNCCLDGAAYASTYGVTTSGNSLSIGFVTQSAQKNVGARLYLMASDTTYQEFTLLGNEFSFDVDVSQLPCGLNGALYFVSMDADGGVSKYPTNTAGAKYGTGYCDSQCPRDLKFINGQANVEGWEPSSNNANTGIGGHGSCCSEMDIWEANSISEALTPHPCTTVGQEICEGDGCGGTYSDNRYGGTCDPDGCDWNPYRLGNTSFYGPGSSFTLDTTKKLTVVTQFETSGAINRYYVQNGVTFQQPNAELGSYSGNELNDDYCTAEEAEFGGSSFSDKGGLTQFKKATSGGMVLVMSLWDDYYANMLWLDSTYPTNETSSTPGAVRGSCSTSSGVPAQVESQSPNAKVTFSNIKFGPIGSTGNPSGGNPPGGNRGTTTTRRPATTTGSSPGPTQSHYGQCGGIGYSGPTVCASGTTCQVLNPYYSQCL
B1: the enzymatic_activity result in series [1] is “increases”.

B2: Trichoderma reesei Cel7A (TrCel7A): ΔN-glycAo (protein)
parent chain: MYRKLAVISAFLATARAQSACTLQSETHPPLTWQKCSSGGTCTQQTGSVVIDANWRWTHATNSSTNCYDGNTWSSTLCPDNETCAKNCCLDGAAYASTYGVTTSGNSLSIGFVTQSAQKNVGARLYLMASDTTYQEFTLLGNEFSFDVDVSQLPCGLNGALYFVSMDADGGVSKYPTNTAGAKYGTGYCDSQCPRDLKFINGQANVEGWEPSSNNANTGIGGHGSCCSEMDIWEANSISEALTPHPCTTVGQEICEGDGCGGTYSDNRYGGTCDPDGCDWNPYRLGNTSFYGPGSSFTLDTTKKLTVVTQFETSGAINRYYVQNGVTFQQPNAELGSYSGNELNDDYCTAEEAEFGGSSFSDKGGLTQFKKATSGGMVLVMSLWDDYYANMLWLDSTYPTNETSSTPGAVRGSCSTSSGVPAQVESQSPNAKVTFSNIKFGPIGSTGNPSGGNPPGGNRGTTTTRRPATTTGSSPGPTQSHYGQCGGIGYSGPTVCASGTTCQVLNPYYSQCL
Regarding B2, the “stability_or_folding, Tm” value in “DSC” (control: WTAo) is reported as “decreases, 65.0 vs 67.9”. Also, the “stability_or_folding, other: residual activity” value in series [2] (control: WTAo) is given as “decreases, 41 ± 2 vs 57 ± 1”.

B3: Trichoderma reesei Cel7A (TrCel7A): ΔN-glycTr (protein)
parent chain: MYRKLAVISAFLATARAQSACTLQSETHPPLTWQKCSSGGTCTQQTGSVVIDANWRWTHATNSSTNCYDGNTWSSTLCPDNETCAKNCCLDGAAYASTYGVTTSGNSLSIGFVTQSAQKNVGARLYLMASDTTYQEFTLLGNEFSFDVDVSQLPCGLNGALYFVSMDADGGVSKYPTNTAGAKYGTGYCDSQCPRDLKFINGQANVEGWEPSSNNANTGIGGHGSCCSEMDIWEANSISEALTPHPCTTVGQEICEGDGCGGTYSDNRYGGTCDPDGCDWNPYRLGNTSFYGPGSSFTLDTTKKLTVVTQFETSGAINRYYVQNGVTFQQPNAELGSYSGNELNDDYCTAEEAEFGGSSFSDKGGLTQFKKATSGGMVLVMSLWDDYYANMLWLDSTYPTNETSSTPGAVRGSCSTSSGVPAQVESQSPNAKVTFSNIKFGPIGSTGNPSGGNPPGGNRGTTTTRRPATTTGSSPGPTQSHYGQCGGIGYSGPTVCASGTTCQVLNPYYSQCL
Regarding B3, the “stability_or_folding, Tm” value in the series “DSC” (control: WTTr) is given as “decreases, 65.2 vs 67.9”. Also, in series [2] (control: WTTr), the “stability_or_folding, other: residual activity” value is given as “no change, 44 ± 1 vs 45 ± 2”.

B4: Trichoderma reesei Cel7A (TrCel7A): N45QAo (protein)
parent chain: MYRKLAVISAFLATARAQSACTLQSETHPPLTWQKCSSGGTCTQQTGSVVIDANWRWTHATNSSTNCYDGNTWSSTLCPDNETCAKNCCLDGAAYASTYGVTTSGNSLSIGFVTQSAQKNVGARLYLMASDTTYQEFTLLGNEFSFDVDVSQLPCGLNGALYFVSMDADGGVSKYPTNTAGAKYGTGYCDSQCPRDLKFINGQANVEGWEPSSNNANTGIGGHGSCCSEMDIWEANSISEALTPHPCTTVGQEICEGDGCGGTYSDNRYGGTCDPDGCDWNPYRLGNTSFYGPGSSFTLDTTKKLTVVTQFETSGAINRYYVQNGVTFQQPNAELGSYSGNELNDDYCTAEEAEFGGSSFSDKGGLTQFKKATSGGMVLVMSLWDDYYANMLWLDSTYPTNETSSTPGAVRGSCSTSSGVPAQVESQSPNAKVTFSNIKFGPIGSTGNPSGGNPPGGNRGTTTTRRPATTTGSSPGPTQSHYGQCGGIGYSGPTVCASGTTCQVLNPYYSQCL
With B4, in “DSC” (control: WTAo), the “stability_or_folding, Tm” value was “decreases, 67.4 vs 67.9”. The “enzymatic_activity, other: convVmax/E0 (kcat)” value in series [3] is listed as “no change, 1.33 ± 0.09 vs 1.46 ± 0.14”. Besides, the “enzymatic_activity, other: invVmax/S0” value in series [4] was “increases, 0.52 ± 0.02 vs 0.45 ± 0.02”. Further, the “stability_or_folding, other: residual activity” value in series [2] (control: WTAo) is reported as “decreases, 38 ± 2 vs 57 ± 1”.

B5: Trichoderma reesei Cel7A (TrCel7A): N384QAo (protein)
parent chain: MYRKLAVISAFLATARAQSACTLQSETHPPLTWQKCSSGGTCTQQTGSVVIDANWRWTHATNSSTNCYDGNTWSSTLCPDNETCAKNCCLDGAAYASTYGVTTSGNSLSIGFVTQSAQKNVGARLYLMASDTTYQEFTLLGNEFSFDVDVSQLPCGLNGALYFVSMDADGGVSKYPTNTAGAKYGTGYCDSQCPRDLKFINGQANVEGWEPSSNNANTGIGGHGSCCSEMDIWEANSISEALTPHPCTTVGQEICEGDGCGGTYSDNRYGGTCDPDGCDWNPYRLGNTSFYGPGSSFTLDTTKKLTVVTQFETSGAINRYYVQNGVTFQQPNAELGSYSGNELNDDYCTAEEAEFGGSSFSDKGGLTQFKKATSGGMVLVMSLWDDYYANMLWLDSTYPTNETSSTPGAVRGSCSTSSGVPAQVESQSPNAKVTFSNIKFGPIGSTGNPSGGNPPGGNRGTTTTRRPATTTGSSPGPTQSHYGQCGGIGYSGPTVCASGTTCQVLNPYYSQCL
With B5, the “stability_or_folding, Tm” value in “DSC” (control: WTAo) is given as “decreases, 66.1 vs 67.9”. The “enzymatic_activity, other: convVmax/E0 (kcat)” value in series [3] is “decreases, 0.34 ± 0.01 vs 0.48 ± 0.02; also recorded: decreases, 1.01 ± 0.03 vs 1.46 ± 0.14”. Moreover, the “stability_or_folding, other: residual activity” value in series [2] (control: WTAo) is “no change, 57 ± 3 vs 57 ± 1”.

B6: Trichoderma reesei Cel7A (TrCel7A): N270QAo (protein)
parent chain: MYRKLAVISAFLATARAQSACTLQSETHPPLTWQKCSSGGTCTQQTGSVVIDANWRWTHATNSSTNCYDGNTWSSTLCPDNETCAKNCCLDGAAYASTYGVTTSGNSLSIGFVTQSAQKNVGARLYLMASDTTYQEFTLLGNEFSFDVDVSQLPCGLNGALYFVSMDADGGVSKYPTNTAGAKYGTGYCDSQCPRDLKFINGQANVEGWEPSSNNANTGIGGHGSCCSEMDIWEANSISEALTPHPCTTVGQEICEGDGCGGTYSDNRYGGTCDPDGCDWNPYRLGNTSFYGPGSSFTLDTTKKLTVVTQFETSGAINRYYVQNGVTFQQPNAELGSYSGNELNDDYCTAEEAEFGGSSFSDKGGLTQFKKATSGGMVLVMSLWDDYYANMLWLDSTYPTNETSSTPGAVRGSCSTSSGVPAQVESQSPNAKVTFSNIKFGPIGSTGNPSGGNPPGGNRGTTTTRRPATTTGSSPGPTQSHYGQCGGIGYSGPTVCASGTTCQVLNPYYSQCL
On to B6, for which the “stability_or_folding, Tm” value in the series “DSC” (control: WTAo) was “decreases, 66.9 vs 67.9”. In series [2] (control: WTAo), the “stability_or_folding, other: residual activity” value was “no change, 60 ± 3 vs 57 ± 1”.
